Measurements published in patent publication US8187838B2, “β-Galactoside-α2, 6-sialyltransferase, a gene encoding thereof, and a method for producing thereof” (Japan Tobacco Inc., priority 2006, dated 2012).

Key:
[1] = Confirmation of binding mode of sialic acid with pyridylaminated lactose, HPLC of product; assay type: biochemical; details: crude enzyme solution, CMP-NeuAc, 25° C., 18 hours
Protocol: To determine the binding mode of sialic acid, a reaction using PA-lactose as a substrate was then performed. The enzymatic reaction was accomplished by using the resulting crude enzyme solution and a pyridylaminated sugar chain as a glycosyl acceptor substrate. The pyridylaminated sugar chain used for analysis was pyridylaminated lactose (Galβ1-4Glc-PA, Takara Bio Inc., Japan). To 5 μl of the crude enzyme solution, 1.5 μl of 5 mM CMP-NeuAc and 1.5 μl of 10 pmol/μl glycosyl acceptor substrate were added and reacted at 25° C. for 18 hours. After the reaction, the reaction solution was treated at 100° C. for 2 minutes to inactivate the enzyme, followed by HPLC to analyze the reaction product. The HPLC system used was Shimadzu LC10A (Shimadzu Corporation, Japan) and the analytical column used was Takara PALPAK Type R (Takara Bio Inc., Japan). […] The analysis was performed under the following conditions: flow rate: 1 ml/min, column temperature: 40° C., detection: fluorescence (Ex: 320 nm, Em: 400 nm).
The crude enzyme solution prepared in (4) above from the ISH224-N1C0 or ISH224-N0C0 clone was used to examine whether sialyltransferase expressed by E. coli cells into which ISH224-N0C0/pTrc or ISH224-N1C0/pTrc had been introduced had β-galactoside-α2,6-sialyltransferase activity. […] As a result, PA-6′-sialyllactose (Neu5Acα2-6Galβ1-4Glc-PA) was detected, as in the case of Example 1.

[2] = Sialic acid transfer reaction using various glycosyl acceptor substrates (monosaccharides, disaccharides, trisaccharide); assay type: biochemical; details: for Sialyltransferase activity: pH 5.0, 30° C., 500 mM NaCl
Excerpt: Cell homogenates prepared from E. coli cells into which JT-ISH-224-derived N1C0 had been introduced and from Photobacterium damselae strain JT0160 were each purified by ion exchange chromatography and hydroxyapatite chromatography to give an electrophoretically single band. The thus purified β-galactoside-α2,6-sialyltransferases were used in the following experiment in order to examine the presence or absence of sialyltransferase activity toward various monosaccharides, disaccharides and trisaccharides.
A reaction solution (24 μl) was prepared to contain CMP-^14C-NeuAc-containing CMP-NeuAc as a glycosyl donor substrate (10.9 nmol (8485 cpm), final concentration in the reaction solution: 0.455 mM), any of various glycosyl acceptor substrates dissolved in 20 mM cacodylate buffer (pH 5.0) (1 μmol, final concentration in the reaction solution: 42 mM), sialyltransferase (3.0 mU for JT-ISH-224-derived N1C0, 4.3 mU for JT0160) and NaCl (final concentration in the reaction solution: 500 mM), and reacted at 30° C. for 2 minutes or 60 minutes. The monosaccharides used as glycosyl acceptor substrates were the following 8 types: methyl-α-D-galactopyranoside (Gal-α-OMe), methyl-β-D-galactopyranoside (Gal-β-OMe), methyl-α-D-glucopyranoside (Glc-α-OMe), methyl-β-D-glucopyranoside (Glc-β-OMe), methyl-α-D-mannopyranoside (Man-α-OMe), methyl-β-D-mannopyranoside (Man-β-OMe), N-acetylgalactosamine ([…]), and N-acetylglucosamine ([…]). The disaccharides used were the following 5 types: lactose (Gal-β1,4-Glc), N-acetyllactosamine (Gal-β1,4-GlcNAc), methyl-β-D-galactopyranosyl-β1,3-N-acetylglucosaminide (Gal-β1,3-GlcNAc-β-OMe), methyl-α-D-galactopyranosyl-α1,3-galactopyranoside (Gal-α1,3-Gal-α-OMe), and methyl-β-D-galactopyranosyl-β1,3-galactopyranoside (Gal-β1,3-Gal-β-OMe). The trisaccharide used was 2′-fucosyllactose (Fuc-α1,2-Galβ1,4-Glc). It should be noted that the final concentration was set to 8.4 mM for the sugar chains shown in Table 4-2, i.e., methyl-α-D-galactopyranosyl-α1,3-[…] (Gal-α1,3-Gal-α-OMe), methyl-β-D-galactopyranosyl-β1,3-galactosaminide (Gal-β1,3-Gal-β-OMe) and 2′-fucosyllactose (Fuc-α1,2-Galβ1,4-Glc).
After completion of the enzymatic reaction, 1.98 ml of 5 mM phosphate buffer (pH 6.8) was added to the reaction solution to stop the enzymatic reaction. Then, the enzymatic reaction solution was diluted with 5 mM phosphate buffer (Ph 6.8) and applied in a volume of 2 ml to a AG1-×2Resin (PO4^3− form, 0.2×2 cm) column. This column was prepared as follows: AG1-×2Resin (OH^− form, BIO-RAD) was suspended in 1 M phosphate buffer (pH 6.8), and after 30 minutes, the resin was washed with distilled water and then suspended in distilled water. The eluate (0 to 2 ml) from this column was measured for its radioactivity. The eluate from this column contains the unreacted glycosyl acceptor substrate and the ^14C-NeuAc (N-acetylneuraminic acid)-bound reaction product which was generated by the reaction, whereas unreacted CMP-^14C-NeuAc is still retained on the column. Thus, the radioactivity of ^14C from each sialic acid-containing sugar chain generated as a result of the enzymatic reaction arises exclusively from the reaction product, so that the radioactivity of this fraction can be used to calculate the enzyme activity.
In the manner described above, the radioactivity of NeuAc transferred to each glycosyl acceptor substrate was measured to calculate the amount of transferred sialic acid.

B1: ISH224-N1C0 (protein, listed as Photobacterium sp.)
chain: MSEENTQSIIKNDINKTIIDEEYVNLEPINQSNISFTKHSWVQTCGTQQLLTEQNKESISLSVVAPRLDDDEKYCFDFNGVSNKGEKYITKVTLNVVAPSLEVYVDHASLPTLQQLMDIIKSEEENPTAQRYIAWGRIVPTDEQMKELNITSFALINNHTPADLVQEIVKQAQTKHRLNVKLSSNTAHSFDNLVPILKELNSFNNVTVTNIDLYDDGSAEYVNLYNWRDTLNKTDNLKIGKDYLEDVINGINEDTSNTGTSSVYNWQKLYPANYHFLRKDYLTLEPSLHELRDYIGDSLKQMQWDGFKKFNSKQQELFLSIVNFDKQKLQNEYNSSNLPNFVFTGTTVWAGNHEREYYAKQQINVINNAINESSPHYLGNSYDLFFKGHPGGGIINTLIMQNYPSMVDIPSKISFEVLMMTDMLPDAVAGIASSLYFTIPAEKIKFIVFTSTETITDRETALRSPLVQVMIKLGIVKEENVLFWADLPNCETGVCIAV
For B1, the “β-galactoside-α2,6-sialyltransferase activity (PA-6′-sialyllactose detected)” value [1] was “found to have β-galactoside-α2,6-sialyltransferase activity”, the “acceptor substrate specificity compared to the known JT0160 enzyme (in words)” value ([2]; 14 monosaccharides, disaccharides and trisaccharide) was “wider range of acceptor substrate specificity” and the “Sialyltransferase activity Relative activity (%)” value ([2]; acceptor 2′-Fucosyllactose (Fuc-α1,2-Galβ1,4-Glc), 8.4 mM, lactose = 100) was 92.1%. The Sialyltransferase activity ([2]; acceptor 2′-Fucosyllactose (Fuc-α1,2-Galβ1,4-Glc), 8.4 mM) was 1.316 nmol/min, the Sialyltransferase activity ([2]; acceptor Lactose (Galβ1,4-Glc), 42 mM, Table 4-1) was 1.875 nmol/min and the “Sialyltransferase activity Relative activity (%)” value ([2]; acceptor Lactose (Galβ1,4-Glc), 42 mM, Table 4-1, set to 100) was 100.0%. The Sialyltransferase activity ([2]; acceptor Lactose (Galβ1,4-Glc), series of Table 4-2 (other acceptors 8.4 mM)) was 1.428 nmol/min, the “Sialyltransferase activity Relative activity (%)” value ([2]; acceptor Lactose (Galβ1,4-Glc), series of Table 4-2, set to 100) was 100.0% and the “Sialyltransferase activity Relative activity (%)” value ([2]; acceptor Methylαgalactopyranoside (Galα-OMe), 42 mM, lactose = 100) was 2.0%. For the same molecule, the Sialyltransferase activity ([2]; acceptor Methylαgalactopyranoside (Galα-OMe), 42 mM) was 0.038 nmol/min, the “Sialyltransferase activity Relative activity (%)” value ([2]; acceptor Methylαgalactopyranosyl α1,3-galactopyranoside (Galα1,3-Galα-OMe), 8.4 mM, lactose = 100) was 1.6% and the Sialyltransferase activity ([2]; acceptor Methylαgalactopyranosyl α1,3-galactopyranoside (Galα1,3-Galα-OMe), 8.4 mM) was 0.023 nmol/min. For the same molecule, the “Sialyltransferase activity Relative activity (%)” value ([2]; acceptor Methylαglucopyranoside (Glcα-OMe), 42 mM, lactose = 100) was 0.4%, the Sialyltransferase activity ([2]; acceptor Methylαglucopyranoside (Glcα-OMe), 42 mM) was 0.008 nmol/min and the “Sialyltransferase activity Relative activity (%)” value ([2]; acceptor Methylαmannopyranoside (Manα-OMe), 42 mM, lactose = 100) was 0.5%. For the same molecule, the Sialyltransferase activity ([2]; acceptor Methylαmannopyranoside (Manα-OMe), 42 mM) was 0.010 nmol/min, the “Sialyltransferase activity Relative activity (%)” value ([2]; acceptor Methylβ-galactopyranosylβ1,3-N-acetylglucosaminide (Galβ1,3-GlcNAcβ-OMe), 42 mM, lactose = 100) was 76.5% and the Sialyltransferase activity ([2]; acceptor Methylβ-galactopyranosylβ1,3-N-acetylglucosaminide (Galβ1,3-GlcNAcβ-OMe), 42 mM) was 1.435 nmol/min. The “Sialyltransferase activity Relative activity (%)” value ([2]; acceptor Methylβgalactopyranoside (Galβ-OMe), 42 mM, lactose = 100) was 59.2%, the Sialyltransferase activity ([2]; acceptor Methylβgalactopyranoside (Galβ-OMe), 42 mM) was 1.110 nmol/min and the “Sialyltransferase activity Relative activity (%)” value ([2]; acceptor Methylβgalactopyranosyl β1,3-galactopyranoside (Galβ1,3-Galβ-OMe), 8.4 mM, lactose = 100) was 67.5%. For the same molecule, the Sialyltransferase activity ([2]; acceptor Methylβgalactopyranosyl β1,3-galactopyranoside (Galβ1,3-Galβ-OMe), 8.4 mM) was 0.964 nmol/min, the “Sialyltransferase activity Relative activity (%)” value ([2]; acceptor Methylβglucopyranoside (Glcβ-OMe), 42 mM, lactose = 100) was 0.5% and the Sialyltransferase activity ([2]; acceptor Methylβglucopyranoside (Glcβ-OMe), 42 mM) was 0.009 nmol/min. For the same molecule, the “Sialyltransferase activity Relative activity (%)” value ([2]; acceptor Methylβmannopyranoside (Manβ-OMe), 42 mM, lactose = 100) was 0.4%, the Sialyltransferase activity ([2]; acceptor Methylβmannopyranoside (Manβ-OMe), 42 mM) was 0.008 nmol/min and the “Sialyltransferase activity Relative activity (%)” value ([2]; acceptor N-Acetylgalactosamine (GalNAc), 42 mM, lactose = 100) was 12.2%. For the same molecule, the Sialyltransferase activity ([2]; acceptor N-Acetylgalactosamine (GalNAc), 42 mM) was 0.228 nmol/min, the “Sialyltransferase activity Relative activity (%)” value ([2]; acceptor N-Acetylglucosamine (GlcNAc), 42 mM, lactose = 100) was 0.4% and the Sialyltransferase activity ([2]; acceptor N-Acetylglucosamine (GlcNAc), 42 mM) was 0.008 nmol/min. The “Sialyltransferase activity Relative activity (%)” value ([2]; acceptor N-Acetyllactosamine (Gatβ1,4-GlcNAc), 42 mM, lactose = 100) was 99.3% and the Sialyltransferase activity ([2]; acceptor N-Acetyllactosamine (Gatβ1,4-GlcNAc), 42 mM) was 1.861 nmol/min.
